How the values were obtained:
[1] = target: neonatal Fc receptor (FcRn) on FcRn Affinity Column Gen2 (Roche, Cat #09430857001) (UniProt P55899); test: FcRn-HPLC (Roche FcRn Affinity Column Gen2), pH gradient 5.5 to 8.8 over 90 minutes
[2] = target: human FcγRI (CD64) extracellular domain (human) (UniProt P12314); test: SPR at 25 C (Biacore T200), antibody captured on Protein A chip, FcγR ECD as analyte; average of 3, SD 1.3
[3] = target: human FcγRIIA_131H (CD32a) extracellular domain (human) (UniProt P12318); test: SPR at 25 C (Biacore T200), antibody captured on Protein A chip, FcγR ECD as analyte, steady state; average of 3, SD 0.01
Sequence of human FcγRIIA_131H (CD32a) extracellular domain (human) (P12318 34-217): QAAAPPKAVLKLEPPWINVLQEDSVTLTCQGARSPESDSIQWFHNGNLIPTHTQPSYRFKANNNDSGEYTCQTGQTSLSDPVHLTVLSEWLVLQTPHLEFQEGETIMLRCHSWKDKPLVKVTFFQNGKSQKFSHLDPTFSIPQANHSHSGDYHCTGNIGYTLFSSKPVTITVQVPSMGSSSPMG

[4] = target: human FcγRIIA_131R (CD32a) extracellular domain (human) (UniProt P12318); test: as above
Sequence of human FcγRIIA_131R (CD32a) extracellular domain (human) (P12318 34-217 H167R): as the sequence (P12318 34-217) above, with H134R counted along it

[5] = target: human FcγRIIIA_158F (CD16a) extracellular domain (human) (UniProt P08637); test: SPR at 25 C (Biacore T200), antibody captured on Protein A chip, FcγR ECD as analyte, steady state; average of 3, SD 0.02
Sequence of human FcγRIIIA_158F (CD16a) extracellular domain (human) (P08637 17-208): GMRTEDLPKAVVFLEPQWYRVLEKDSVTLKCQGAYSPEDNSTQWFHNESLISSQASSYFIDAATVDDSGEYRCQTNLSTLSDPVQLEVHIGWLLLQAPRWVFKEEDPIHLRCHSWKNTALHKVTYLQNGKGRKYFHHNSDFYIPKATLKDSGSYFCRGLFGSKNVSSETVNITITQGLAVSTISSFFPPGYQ

[6] = target: human LEPR, full length, on HEK293-STAT3Luc-hLepR1 cells (Homo sapiens) (UniProt P48357); test: cell-based or functional assay
Sequence of human LEPR, full length, on HEK293-STAT3Luc-hLepR1 cells (Homo sapiens) (P48357 22-1165 limits assumed): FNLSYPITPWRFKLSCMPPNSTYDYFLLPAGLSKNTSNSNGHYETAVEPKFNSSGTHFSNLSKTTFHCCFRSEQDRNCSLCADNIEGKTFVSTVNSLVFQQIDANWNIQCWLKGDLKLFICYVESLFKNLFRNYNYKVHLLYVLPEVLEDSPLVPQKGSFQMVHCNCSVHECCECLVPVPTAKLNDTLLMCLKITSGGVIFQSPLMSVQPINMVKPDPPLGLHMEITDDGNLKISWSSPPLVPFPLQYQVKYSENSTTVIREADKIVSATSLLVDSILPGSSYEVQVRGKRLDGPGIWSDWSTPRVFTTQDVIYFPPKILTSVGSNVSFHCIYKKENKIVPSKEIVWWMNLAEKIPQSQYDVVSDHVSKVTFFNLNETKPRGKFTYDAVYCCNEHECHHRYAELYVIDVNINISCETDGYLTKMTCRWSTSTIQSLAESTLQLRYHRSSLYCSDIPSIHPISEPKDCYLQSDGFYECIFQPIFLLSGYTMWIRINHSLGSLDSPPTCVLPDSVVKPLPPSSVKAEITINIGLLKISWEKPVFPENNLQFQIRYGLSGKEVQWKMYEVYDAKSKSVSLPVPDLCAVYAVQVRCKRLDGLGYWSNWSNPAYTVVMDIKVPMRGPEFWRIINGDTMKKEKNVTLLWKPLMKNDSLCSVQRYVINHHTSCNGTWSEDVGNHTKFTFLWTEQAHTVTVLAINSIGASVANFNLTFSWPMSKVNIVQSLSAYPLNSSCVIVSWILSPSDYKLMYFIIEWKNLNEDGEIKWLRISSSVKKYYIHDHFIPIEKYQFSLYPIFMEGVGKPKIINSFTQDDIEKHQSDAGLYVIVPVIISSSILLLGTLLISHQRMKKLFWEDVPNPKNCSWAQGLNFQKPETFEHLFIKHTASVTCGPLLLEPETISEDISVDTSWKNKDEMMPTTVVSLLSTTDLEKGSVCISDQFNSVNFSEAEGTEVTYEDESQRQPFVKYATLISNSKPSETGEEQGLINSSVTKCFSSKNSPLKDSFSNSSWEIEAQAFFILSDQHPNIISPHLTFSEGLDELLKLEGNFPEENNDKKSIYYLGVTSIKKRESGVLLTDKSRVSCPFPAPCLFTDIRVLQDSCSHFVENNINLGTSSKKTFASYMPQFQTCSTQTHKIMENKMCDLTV

[7] = target: human LEPR, full length, on HEK293-STAT3Luc-hLepR1 cells (Homo sapiens) (UniProt P48357); test: flow cytometry on live HEK293-STAT3Luc-hLepR1 cells, AF647 anti-human IgG; average of 4 runs
[8] = target: cynomolgus monkey LEPR, full length, on HEK293-STAT3Luc-cmLepR2 cells (Macaca fascicularis); test: flow cytometry on live HEK293-STAT3Luc-cmLepR2 cells, AF647 anti-human IgG; average of 4 runs
[9] = target: cynomolgus monkey LEPR, full length, on HEK293-STAT3Luc-cmLepR2 cells (Macaca fascicularis); test: flow cytometry on live HEK293-STAT3Luc-cmLepR2 cells, AF647 anti-human IgG; average of 4 runs, SD 0, R^2 0.60
[10] = target: human LEPR, full length, on HEK293-STAT3Luc-hLepR1 cells (Homo sapiens) (UniProt P48357); test: flow cytometry on live HEK293-STAT3Luc-hLepR1 cells, AF647 anti-human IgG; average of 4 runs, SD 331, R^2 0.50
[11] = target: neonatal Fc receptor (FcRn) on FcRn Affinity Column Gen2 (Roche, Cat #09430857001) (UniProt P55899); test: FcRn-HPLC (Roche FcRn Affinity Column Gen2), peak width at 50% peak height
[12] = target: Mutant human LEPR-A409E, on HEK293 STAT3-Luciferase reporter cells (human) (UniProt P48357); test: cell-based or functional assay
Sequence of Mutant human LEPR-A409E, on HEK293 STAT3-Luciferase reporter cells (human) (P48357 22-1165 A409E limits assumed): as the sequence (P48357 22-1165 limits assumed) above, with A388E counted along it

Sequence of neonatal Fc receptor (FcRn) on FcRn Affinity Column Gen2 (Roche, Cat #09430857001) (P55899 24-297 limits assumed, chain 1 of 2): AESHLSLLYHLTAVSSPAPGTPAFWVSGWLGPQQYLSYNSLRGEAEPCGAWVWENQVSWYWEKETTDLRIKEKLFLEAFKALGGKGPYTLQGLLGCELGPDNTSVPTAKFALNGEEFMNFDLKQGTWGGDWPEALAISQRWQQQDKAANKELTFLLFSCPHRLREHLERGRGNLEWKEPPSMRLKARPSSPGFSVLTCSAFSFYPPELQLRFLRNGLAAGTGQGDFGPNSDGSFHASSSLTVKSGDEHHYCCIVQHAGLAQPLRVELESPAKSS
Sequence of neonatal Fc receptor (FcRn) on FcRn Affinity Column Gen2 (Roche, Cat #09430857001) (P61769 21-119 limits assumed, chain 2 of 2, further chain): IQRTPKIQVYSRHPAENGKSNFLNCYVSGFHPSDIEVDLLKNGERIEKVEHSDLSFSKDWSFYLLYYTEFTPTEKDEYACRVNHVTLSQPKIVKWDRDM
Sequence of human FcγRI (CD64) extracellular domain (human) (P12314 16-292): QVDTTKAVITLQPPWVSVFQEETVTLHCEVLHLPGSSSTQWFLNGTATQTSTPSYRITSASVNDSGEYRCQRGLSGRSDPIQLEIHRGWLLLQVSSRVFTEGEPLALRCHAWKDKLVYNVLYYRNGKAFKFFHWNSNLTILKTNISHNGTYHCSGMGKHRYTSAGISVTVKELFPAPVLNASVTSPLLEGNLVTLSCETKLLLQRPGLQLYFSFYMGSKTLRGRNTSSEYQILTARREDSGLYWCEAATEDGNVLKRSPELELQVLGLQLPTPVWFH

## Briakinumab (antibody)
[1]
  Retention Time: 88.9 min

## IgG1 positive control (antibody)
[2]
  Kd: 0.0619 nM
[3]
  Kd: 520 nM
[4]
  Kd: 530 nM
[5]
  Kd: 860 nM

## IgG Isotype control (antibody)
[6]
  Maximum RLU, pERK1/2 AlphaLISA (baseline 29762.5): 27300 RLU
[7]
  Bottom (gMFI): 148 gMFI
  Top (gMFI): 293 gMFI
[8]
  Bottom (gMFI): 69 gMFI
  Top (gMFI): 131 gMFI
[9]
  EC50: 727 nM
[10]
  EC50: 409 nM

## Ustekinumab (antibody)
[11]
  Peak Width: 1.9 min
[1]
  Retention Time: 69.4 min

## recombinant human leptin protein (SEQ ID NO:27) (from UniProt P41159 22-167) (ligand)
[12]
  Top (RLU), STAT3-luciferase reporter (projected by the fitting software): 259000 RLU
[6]
  Maximum RLU, pERK1/2 AlphaLISA (baseline 29762.5): 138000 RLU
